Assay [1] concerns the target T1, GST-GRIP 1 PDZ domain 5 (Homo sapiens (Human)), Q9Y3R0.
T1 chain: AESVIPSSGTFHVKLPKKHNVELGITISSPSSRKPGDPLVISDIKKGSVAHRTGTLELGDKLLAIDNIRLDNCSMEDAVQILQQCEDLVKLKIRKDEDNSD
Kind of assay: G' assay. Also: key of the grades not given here.

The target of assay [2] is T2, GST-APXL-1 PDZ domain 1 (Homo sapiens (Human)), Q13796.
T2 chain: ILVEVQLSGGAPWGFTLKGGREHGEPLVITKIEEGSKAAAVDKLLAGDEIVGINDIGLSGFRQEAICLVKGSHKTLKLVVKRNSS
Kind of assay: G' assay. Also: key of the grades not given here.

In assay [3] the target is T3, GST-MINT1 PDZ domain 2 (Mus musculus (Mouse)), B2RUJ5.
T3 chain: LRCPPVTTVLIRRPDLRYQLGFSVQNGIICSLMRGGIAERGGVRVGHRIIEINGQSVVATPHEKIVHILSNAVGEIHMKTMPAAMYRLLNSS
Put plainly: G' assay. Also: key of the grades not given here.

The target in assay [4] is T4, GST-KIAA0973 PDZ domain 1 (Homo sapiens (Human)), Q9Y2H9.
T4 chain: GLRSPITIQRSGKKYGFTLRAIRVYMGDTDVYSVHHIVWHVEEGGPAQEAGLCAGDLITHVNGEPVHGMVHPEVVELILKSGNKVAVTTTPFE
Put plainly: G' assay. Also: key of the grades not given here.

The target of assay [5] is GST-CARD14 PDZ domain 1 (Homo sapiens (Human)), Q9BXL6. Kind of assay: G' assay. Also: key of the grades not given here.
Assay [6] addresses T5, GST-PTPL1 PDZ domain 5 (Homo sapiens (Human)), Q12923.
T5 chain: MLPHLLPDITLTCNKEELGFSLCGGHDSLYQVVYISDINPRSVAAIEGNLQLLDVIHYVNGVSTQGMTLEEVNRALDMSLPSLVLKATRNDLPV
Put plainly: G' assay. Also: key of the grades not given here.

Assay [7] has as its target T6, GST-DVL2 PDZ domain 1 (Homo sapiens (Human)), O14641.
T6 chain: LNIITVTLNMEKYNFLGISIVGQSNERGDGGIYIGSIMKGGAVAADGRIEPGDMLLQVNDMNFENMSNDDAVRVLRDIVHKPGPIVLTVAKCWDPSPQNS
Kind of assay: G' assay. Also: key of the grades not given here.

Assay [8] addresses T7, GST-KIAA1719 PDZ domain 3 (Homo sapiens (Human)), Q9C0E4.
T7 chain: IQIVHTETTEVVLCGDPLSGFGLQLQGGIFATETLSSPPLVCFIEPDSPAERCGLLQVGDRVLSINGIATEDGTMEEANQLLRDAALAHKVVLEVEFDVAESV
Put plainly: G' assay.

The target of assay [9] is T8, GST-LU-1 PDZ domain 1 (Homo sapiens (Human)), Q76G19.
T8 chain: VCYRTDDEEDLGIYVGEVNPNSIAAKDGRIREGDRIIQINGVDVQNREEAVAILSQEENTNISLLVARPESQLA
Put plainly: G' assay.

Assay [10] concerns the target T9, GST-MUPP1 PDZ domain 4 (Homo sapiens (Human)), O75970.
T9 chain: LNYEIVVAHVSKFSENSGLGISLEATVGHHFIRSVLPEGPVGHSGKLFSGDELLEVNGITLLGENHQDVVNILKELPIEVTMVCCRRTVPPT
Kind of assay: G' assay.

For assay [11], the target named is T10, GST-MPP2 PDZ domain 1 (Homo sapiens (Human)), Q14168.
T10 chain: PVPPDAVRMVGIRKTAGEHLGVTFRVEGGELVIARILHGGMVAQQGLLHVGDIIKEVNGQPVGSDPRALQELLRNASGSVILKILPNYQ
Kind of assay: G' assay.

In assay [12] the target is T11, GST-HEMBA 1003117 PDZ domain 1 (Homo sapiens (Human)), Q96JH8.
T11 chain: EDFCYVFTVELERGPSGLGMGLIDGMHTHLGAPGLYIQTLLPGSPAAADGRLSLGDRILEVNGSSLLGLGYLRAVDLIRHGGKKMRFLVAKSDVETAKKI
Put plainly: G' assay.

In assay [13] the target is GST-PAR3 PDZ domain 3 (Homo sapiens (Human)), Q8TEW0. Put plainly: G assay titration, PDZ 1 ug/ml.
For assay [14], the target named is T12, GST-KIAA0380 PDZ domain 1 (Homo sapiens (Human)), O15085.
T12 chain: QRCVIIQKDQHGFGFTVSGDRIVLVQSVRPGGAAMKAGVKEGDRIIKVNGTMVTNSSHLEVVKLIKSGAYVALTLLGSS
Put plainly: G' assay.

In assay [15] the target is T13, GST-PICK1 PDZ domain 1 (Bos taurus (Bovine)), Q2T9M1.
T13 chain: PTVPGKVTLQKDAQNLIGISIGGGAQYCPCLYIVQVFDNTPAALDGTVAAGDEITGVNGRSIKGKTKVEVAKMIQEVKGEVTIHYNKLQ
Put plainly: G' assay.

Assay [16] has as its target GST-PAR3 PDZ domain 3 (Homo sapiens (Human)), Q8TEW0. Put plainly: G' assay. Also: key of the grades not given here.
Assay [17] concerns the target T14, GST-AIPC PDZ domain 1 (Homo sapiens (Human)), O15018.
T14 chain: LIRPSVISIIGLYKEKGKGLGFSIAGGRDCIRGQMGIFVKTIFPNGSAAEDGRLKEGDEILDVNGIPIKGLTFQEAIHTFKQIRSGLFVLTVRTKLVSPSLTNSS
Kind of assay: G' assay.

For assay [18], the target named is T15, GST-MUPP1 PDZ domain 7 (Homo sapiens (Human)), O75970.
T15 chain: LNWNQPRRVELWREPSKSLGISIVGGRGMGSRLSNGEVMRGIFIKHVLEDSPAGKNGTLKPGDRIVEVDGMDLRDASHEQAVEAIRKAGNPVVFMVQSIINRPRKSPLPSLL
Put plainly: G' assay.

The target in assay [19] is T16, GST-KIAA1719 PDZ domain 5 (Homo sapiens (Human)), Q9C0E4.
T16 chain: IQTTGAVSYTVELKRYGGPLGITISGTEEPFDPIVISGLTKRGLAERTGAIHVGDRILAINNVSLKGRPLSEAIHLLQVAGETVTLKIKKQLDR
Put plainly: G' assay.

For assay [20], the target named is T17, GST-ZO-1 PDZ domain 2 (Rattus norvegicus (Rat)), A0A0G2.
T17 chain: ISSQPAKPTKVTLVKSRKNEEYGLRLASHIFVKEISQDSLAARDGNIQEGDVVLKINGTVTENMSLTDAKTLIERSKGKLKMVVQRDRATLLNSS
Kind of assay: G' assay.

Assay [21] has as its target T18, GST-FLJ 10324 PDZ domain 1 [GST: P08515].
T18 chain: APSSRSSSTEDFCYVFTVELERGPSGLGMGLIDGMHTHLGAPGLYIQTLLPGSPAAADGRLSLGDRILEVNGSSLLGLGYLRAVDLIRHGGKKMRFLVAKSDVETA
Kind of assay: G' assay.

The target of assay [22] is T19, GST-GRIP 1 PDZ domain 6 (Mus musculus (Mouse)), Q925T6.
T19 chain: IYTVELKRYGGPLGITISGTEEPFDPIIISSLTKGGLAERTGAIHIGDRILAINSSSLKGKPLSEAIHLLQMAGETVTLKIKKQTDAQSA
Kind of assay: G' assay.

For assay [23], the target named is T20, GST-MINT1 PDZ domains 1, 2, Q02410.
T20 chain: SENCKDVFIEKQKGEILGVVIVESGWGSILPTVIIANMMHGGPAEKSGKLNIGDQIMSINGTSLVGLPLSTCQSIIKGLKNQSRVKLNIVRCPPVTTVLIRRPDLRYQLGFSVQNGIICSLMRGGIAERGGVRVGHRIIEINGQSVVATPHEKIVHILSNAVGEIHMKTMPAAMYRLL
Put plainly: G' assay.

In assay [24] the target is T21, GST-MUPP1 PDZ domain 3 (Homo sapiens (Human)), O75970.
T21 chain: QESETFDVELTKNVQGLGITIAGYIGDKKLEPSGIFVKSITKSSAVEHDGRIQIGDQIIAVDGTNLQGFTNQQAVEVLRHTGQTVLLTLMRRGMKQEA
Kind of assay: G' assay.

Assay [25] addresses T22, GST-KIAA1719 PDZ domain 6 (Homo sapiens (Human)), Q9C0E4.
T22 chain: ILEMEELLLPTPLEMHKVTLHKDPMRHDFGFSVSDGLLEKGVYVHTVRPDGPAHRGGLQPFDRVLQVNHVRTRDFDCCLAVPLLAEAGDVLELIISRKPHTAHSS
Kind of assay: G' assay.

Assay [26] deals with T23, GST-MUPP1 PDZ domain 9 (Homo sapiens (Human)), O75970.
T23 chain: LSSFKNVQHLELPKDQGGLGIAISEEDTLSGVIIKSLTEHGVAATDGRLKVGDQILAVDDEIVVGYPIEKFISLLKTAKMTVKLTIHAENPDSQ
Put plainly: G' assay.

For assay [27], the target named is T24, GST-INADL PDZ domain 3 (Homo sapiens (Human)), Q8NI35.
T24 chain: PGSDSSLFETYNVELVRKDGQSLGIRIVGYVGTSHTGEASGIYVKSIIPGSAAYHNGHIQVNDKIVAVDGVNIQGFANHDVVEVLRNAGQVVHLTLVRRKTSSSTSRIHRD
Put plainly: G' assay.

Assay [28] concerns the target T13, GST-PICK1 PDZ domain 1 (Bos taurus …). Kind of assay: G assay titration, PDZ 5 ug/ml.
Assay [29] deals with T14, GST-AIPC PDZ domain 1 (Homo sapiens …). Kind of assay: G assay titration, PDZ 5 ug/ml.
In assay [30] the target is T15, GST-MUPP1 PDZ domain 7 (Homo sapiens …). Put plainly: G assay titration, PDZ 5 ug/ml.
The target of assay [31] is T16, GST-KIAA1719 PDZ domain 5 (Homo sapiens …). Kind of assay: G assay titration, PDZ 5 ug/ml.
Assay [32] addresses T17, GST-ZO-1 PDZ domain 2 (Rattus …). Kind of assay: G assay titration, PDZ 5 ug/ml.
Assay [33] concerns the target T18, GST-FLJ 10324 PDZ domain 1 [GST: P08515]. Put plainly: G assay titration, PDZ 5 ug/ml.
The target of assay [34] is T19, GST-GRIP 1 PDZ domain 6 (Mus musculus …). Kind of assay: G assay titration, PDZ 5 ug/ml.
The target in assay [35] is T20, GST-MINT1 PDZ domains 1, 2, Q02410. Kind of assay: G assay titration, PDZ 5 ug/ml.
The target of assay [36] is T21, GST-MUPP1 PDZ domain 3 (Homo sapiens …). Put plainly: G assay titration, PDZ 5 ug/ml.
For assay [37], the target named is T22, GST-KIAA1719 PDZ domain 6 (Homo sapiens …). Put plainly: G assay titration, PDZ 5 ug/ml.
Assay [38] addresses T23, GST-MUPP1 PDZ domain 9 (Homo sapiens …). Kind of assay: G assay titration, PDZ 5 ug/ml.
The target of assay [39] is T24, GST-INADL PDZ domain 3 (Homo sapiens …). Kind of assay: G assay titration, PDZ 5 ug/ml.

Chain of GST-CARD14 PDZ domain 1 (Homo sapiens (Human)), Q9BXL6 (Q9BXL6 565-664): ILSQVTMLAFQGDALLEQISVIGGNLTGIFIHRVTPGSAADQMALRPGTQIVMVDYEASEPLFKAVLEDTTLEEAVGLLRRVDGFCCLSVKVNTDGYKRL
Chain of GST-PAR3 PDZ domain 3 (Homo sapiens (Human)), Q8TEW0 (Q8TEW0 579-681): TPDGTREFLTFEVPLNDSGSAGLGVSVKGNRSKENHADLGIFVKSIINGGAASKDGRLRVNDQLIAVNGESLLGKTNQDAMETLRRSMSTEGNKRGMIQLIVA

In the case of DFRPSFKHILFRRARRGFRQ (modifications not checked) [alpha-2C Adrenergic receptor], the Classification in [1] amounted to 1 A450 class; in [2], 3 A450 class; in assay [3] it was 3 A450 class; in assay [4], 3 A450 class; in assay [5], 5 A450 class; in assay [6], 3 A450 class. Further, the Classification in assay [7] turned out to be 3 A450 class; in [8], 5 A450 class; in [9], 4 A450 class; in assay [10] it was 3 A450 class.
Take LAVLAYSITLVMLWSIWQYA (modifications not checked) [Serotonin receptor 3a]: the Classification in assay [11], in assay [12] and in assay [5] was 2 A450 class each time.
Regarding HHLVAQRDIRQFQLQHWLAI (modifications not checked) [noradrenaline transporter], the equilibrium dissociation constant (Kd) (usually the concentration at which binding is half-saturated) stood at 600 nM in [13]; 1000 nM in [28]; 600 nM in [29]; 800 nM in assay [30]; 1000 nM in [31]; 400 nM in assay [32]. Also, the Kd in [33] turned out to be 600 nM; in [34], 500 nM; in assay [35] it was 500 nM; in assay [36], 400 nM; in assay [37], 800 nM; in assay [38] it was 700 nM. In addition, in [39], the Kd came out at 600 nM. Besides, the Classification is 1 A450 class in [14]; 1 A450 class in [15]; 4 A450 class in assay [16]; 2 A450 class in assay [17]; 3 A450 class in assay [18]; 2 A450 class in assay [19]. Moreover, the Classification in assay [20] turned out to be 2 A450 class; in [21] it was 3 A450 class; in assay [22], 2 A450 class; in [23], 3 A450 class; in assay [24] it was 4 A450 class; in assay [25], 2 A450 class. Further, the Classification in assay [26] and in [27] was 3 A450 class throughout.
